The values below come from the RNAGym collection of RNA variant scans (doi:10.7554/elife.90254).

To fix the notation:
B1: OR4K15 (parent)
chain: GUUAACGGUCAUAGGCCAUGGAAACUAGGAGCACCAUUUCGCUGCCAGUGAAGAAAUGAACAAAGAAAAUCUGGGCCAGGCAGGCAUCAAAAGAAAUAGUCUUGCGCUCAACCAGAAAGUCUGUAAUCAUUUUAAGGGUA

This data set covers variants of B1. The data set can be described thus: self-cleavage, relative activity (ratio to wild type); higher = more cleavage; in vitro, sequencing; the parent is a self-cleaving ribozyme.
On to GUUAACGGUCAUAGGCCAUGGAAACUAGGAGCACCAUUUCGCUGCCAGUGAAGAAAUGAACAAAGGAAAUCUGGGCCAGCCAGGCAUCAAAAGAAAUAGUCUUGCGCUCAACCAGAAAGUCUGUAAUCAUUUUAAGGGUA [A66G G80C], for which the self-cleavage worked out at 0.12.

With GUUAACGGUCAUAGGCCAUGGAAACUAGGAGCACCAUUUCGCUGCCAGUGAAGAAAUGAACAAAGGAAAUCUGGGCCAGGCAGGCAUCAAAAGAAAUAGUCCUGCGCUCAACCAGAAAGUCUGUAAUCAUUUUAAGGGUA [A66G U102C], the self-cleavage amounted to 1.84.

With GUUAACGGUCAUAGGCCAUGGAAACUAGGAGCACCAUUUCGCUGCCAGUGAAGAAAUGAACAAAGGAAAUCUGGGCAAGGCAGGCAUCAAAAGAAAUAGUCUUGCGCUCAACCAGAAAGUCUGUAAUCAUUUUAAGGGUA [A66G C77A], the self-cleavage amounted to 0.91.

Take GUUAACGGUCAUAGGCCAUGGAAACUAGGAGCACCAUUUCGCUGCCAGUGAAGAAAUGAACAAAGGAAAUCUGGGCCAGGCAGGCAUCAAAAGAAGUAGUCUUGCGCUCAACCAGAAAGUCUGUAAUCAUUUUAAGGGUA [A66G A96G]: the self-cleavage came to 1.87.

Consider GUUAACGGUCAUAGGCCAUGGAAACUAGGAGCACCAUUUCGCUGCCAGUGAAGAAAUGAACAAAGGAAAUCUGGGCCAGGCAGGCAUCAAAAGAAAUAGUCUUGGGCUCAACCAGAAAGUCUGUAAUCAUUUUAAGGGUA [A66G C105G], for which the self-cleavage worked out at 0.03.

Consider GUUAACGGUCAUAGGCCAUGGAAACUAGGAGCACCAUUUCGCUGCCAGUGAAGAAAUGAACAAAGGAAAUCUGGGCCAGGCAGGCAUCAAAAGAAAUAGUCUUGCGCUCAACCAGAAAGUCUGUAACCAUUUUAAGGGUA [A66G U127C], for which the self-cleavage was 1.11.

For the variant GUUAACGGUCAUAGGCCAUGGAAACUAGGAGCACCAUUUCGCUGCCAGUGAAGAAAUGAACAAAGGAAAUCUGGACCAGGCAGGCAUCAAAAGAAAUAGUCUUGCGCUCAACCAGAAAGUCUGUAAUCAUUUUAAGGGUA [A66G G75A], the self-cleavage was determined as 0.08.

For the variant GUUAACGGUCAUAGGCCAUGGAAACUAGGAGCACCAUUUCGCUGCCAGUGAAGAAAUGAACAAAGGAAAUCUGGGCCAGGCAGGCAUCAAAAGAAAUAGUCUUGCGCUCCACCAGAAAGUCUGUAAUCAUUUUAAGGGUA [A66G A110C], the self-cleavage was determined as 0.37.

For the variant GUUAACGGUCAUAGGCCAUGGAAACUAGGAGCACCAUUUCGCUGCCAGUGAAGAAAUGAACAAAGGAAAUCUGGGCCAGGCAGGCAUCAAAAGAAAUAGUCUUGCGCUCGACCAGAAAGUCUGUAAUCAUUUUAAGGGUA [A66G A110G], the self-cleavage came to 0.15.

Consider GUUAACGGUCAUAGGCCAUGGAAACUAGGAGCACCAUUUCGCUGCCAGUGAAGAAAUGAACAAAGGAAAUCUGGGCCAGGCAGGCAUCAAAUGAAAUAGUCUUGCGCUCAACCAGAAAGUCUGUAAUCAUUUUAAGGGUA [A66G A92U], for which the self-cleavage was 1.98.

Regarding GUUAACGGUCAUAGGCCAUGGAAACUAGGAGCACCAUUUCGCUGCCAGUGAAGAAAUGAACAAAGGAAAUCUGGGCCAGGCAGGCAUCAAAAGAAAUAGUCUUGCGCUCAACCAGGAAGUCUGUAAUCAUUUUAAGGGUA [A66G A116G], the self-cleavage turned out to be 0.6.

Regarding GUUAACGGUCAUAGGCCAUGGAAACUAGGAGCACCAUUUCGCUGCCAGUGAAGAAAUGAACAAAGGAAAUCUGGGCCAGGCAGGCAUCAAAAGAAAUAGUCUUGCGCACAACCAGAAAGUCUGUAAUCAUUUUAAGGGUA [A66G U108A], the self-cleavage was 0.02.

Consider GUUAACGGUCAUAGGCCAUGGAAACUAGGAGCACCAUUUCGCUGCCAGUGAAGAAAUGAACAAAGGAAAUCUGGGCCAGGCAGGCAUCAAAAGAAAUAGUCUUGCGCCCAACCAGAAAGUCUGUAAUCAUUUUAAGGGUA [A66G U108C], for which the self-cleavage amounted to 0.02.

Consider GUUAACGGUCAUAGGCCAUGGAAACUAGGAGCACCAUUUCGCUGCCAGUGAAGAAAUGAACAAAGGAAAUCUGGGCCAGGCAGGCAUCAAAAGAAAUAGUCUUGCGCUCAACCAGAAAGACUGUAAUCAUUUUAAGGGUA [A66G U120A], for which the self-cleavage came to 1.73.

For GUUAACGGUCAUAGGCCAUGGAAACUAGGAGCACCAUUUCGCUGCCAGUGAAGAAAUGAACAAAGGAAAUCUGGGCCAGGCAGGCAUCAAAAGAAAUAGUCUUGCGCUCAACCAGAAAGGCUGUAAUCAUUUUAAGGGUA [A66G U120G], the self-cleavage came to 2.47.

GUUAACGGUCAUAGGCCAUGGAAACUAGGAGCACCAUUUCGCUGCCAGUGAAGAAAUGAACAAAGGAAAUCUGGGCCAGGCAGGCAUCAAAAGAAAUUGUCUUGCGCUCAACCAGAAAGUCUGUAAUCAUUUUAAGGGUA [A66G A98U]: the self-cleavage amounted to 1.08.

Consider GUUAACGGUCAUAGGCCAUGGAAACUAGGAGCACCAUUUCGCUGCCAGUGAAGAAAUGAACAAAGGAAAUCUGGGCCAGGCAGGCAUCAAAAGAAAUAGUCUUGCGCUCAACCAGAAAGUCUGUAAUCAUUUUAAAGGUA [A66G G136A], for which the self-cleavage amounted to 1.72.

As to GUUAACGGUCAUAGGCCAUGGAAACUAGGAGCACCAUUUCGCUGCCAGUGAAGAAAUGAACAAAGGAAAUCUGGGCCAGGCAGGCAUCAAAAGAAAUAGUCUUGCGCUCAACCAGAAAGUCUGUAUUCAUUUUAAGGGUA [A66G A126U], the self-cleavage is 1.54.

Consider GUUAACGGUCAUAGGCCAUGGAAACUAGGAGCACCAUUUCGCUGCCAGUGAAGAAAUGAACAAAGGAAAUCUGGGCCAGGCAGGCAUCAAAAGAAAUAGUCUAGCGCUCAACCAGAAAGUCUGUAAUCAUUUUAAGGGUA [A66G U103A], for which the self-cleavage was 0.32.

For GUUAACGGUCAUAGGCCAUGGAAACUAGGAGCACCAUUUCGCUGCCAGUGAAGAAAUGAACAAAGGAAAUCUGGGCCAGGCAGGCAUCAAAAGAAAUAGUCUCGCGCUCAACCAGAAAGUCUGUAAUCAUUUUAAGGGUA [A66G U103C], the self-cleavage came to 1.06.

Turning to GUUAACGGUCAUAGGCCAUGGAAACUAGGAGCACCAUUUCGCUGCCAGUGAAGAAAUGAACAAAGGAAAUCUGGGCCAGGCAGGCAUCAGAAGAAAUAGUCUUGCGCUCAACCAGAAAGUCUGUAAUCAUUUUAAGGGUA [A66G A90G], the self-cleavage stood at 1.17.

In the case of GUUAACGGUCAUAGGCCAUGGAAACUAGGAGCACCAUUUCGCUGCCAGUGAAGAAAUGAACAAAGGAAAUCUGGGCCAGGCAGGCAUCAAAAGAAAUAGUCUUGCGCUCAACCAGAAAGUCUGUAAUCACUUUAAGGGUA [A66G U130C], the self-cleavage stood at 1.68.

GUUAACGGUCAUAGGCCAUGGAAACUAGGAGCACCAUUUCGCUGCCAGUGAAGAAAUGAACAAAGGAAAUCUGGGCCAGGCAGGCAUCAAAAGAAAUAGUCUUGCGCUCAACCAGAAAGUCUGUAAUCAGUUUAAGGGUA [A66G U130G]: the self-cleavage was determined as 0.2.

For GUUAACGGUCAUAGGCCAUGGAAACUAGGAGCACCAUUUCGCUGCCAGUGAAGAAAUGAACAAAGGAAAUCUGGGCCAGGCAGGCAUCAAAAGAAAUAGUCUUGCGCUCAACCAGAAAGUCUGAAAUCAUUUUAAGGGUA [A66G U124A], the self-cleavage was 1.19.

GUUAACGGUCAUAGGCCAUGGAAACUAGGAGCACCAUUUCGCUGCCAGUGAAGAAAUGAACAAAGGAAAUCUGGGCCAGGCAGGCAUCAAAAGAAAUAGUCUUGCGCUCAACCAGAAAGUCUGCAAUCAUUUUAAGGGUA [A66G U124C]: the self-cleavage amounted to 0.76.

As for GUUAACGGUCAUAGGCCAUGGAAACUAGGAGCACCAUUUCGCUGCCAGUGAAGAAAUGAACAAAGGAAAUCUGGGCCAGGCAGGCAUCAAAAGAAAUAGUCUUUCGCUCAACCAGAAAGUCUGUAAUCAUUUUAAGGGUA [A66G G104U], the self-cleavage was found to be 0.02.

As to GUUAACGGUCAUAGGCCAUGGAAACUAGGAGCACCAUUUCGCUGCCAGUGAAGAAAUGAACAAAGGAAAUCUGGGCCAGGCAGGCAUCAAAAGAAAUAGUCUUACGCUCAACCAGAAAGUCUGUAAUCAUUUUAAGGGUA [A66G G104A], the self-cleavage came out at 0.03.

Regarding GUUAACGGUCAUAGGCCAUGGAAACUAGGAGCACCAUUUCGCUGCCAGUGAAGAAAUGAACAAAGGAAAUCUGGGCCAGGCAGGCAUCAAAAGAAAUAGUCUUGCGCUCAACCAGAAAGUCAGUAAUCAUUUUAAGGGUA [A66G U122A], the self-cleavage stood at 1.63.

For the variant GUUAACGGUCAUAGGCCAUGGAAACUAGGAGCACCAUUUCGCUGCCAGUGAAGAAAUGAACAAAGGAAAUCUGGGCCAGGCAGGCAUCAAAAGAAAUAGUCUUGCGCUCAACCAGAAAGUCCGUAAUCAUUUUAAGGGUA [A66G U122C], the self-cleavage is 1.67.

Take GUUAACGGUCAUAGGCCAUGGAAACUAGGAGCACCAUUUCGCUGCCAGUGAAGAAAUGAACAAAGGAAAUCUGGGCCAGGCAGGCAUCAAAAGAAAUAGUCUUGCGCUCAACCAGAAAGUCGGUAAUCAUUUUAAGGGUA [A66G U122G]: the self-cleavage was determined as 2.19.

As to GUUAACGGUCAUAGGCCAUGGAAACUAGGAGCACCAUUUCGCUGCCAGUGAAGAAAUGAACAAAGGAAAUCAGGGCCAGGCAGGCAUCAAAAGAAAUAGUCUUGCGCUCAACCAGAAAGUCUGUAAUCAUUUUAAGGGUA [A66G U72A], the self-cleavage stood at 0.32.

GUUAACGGUCAUAGGCCAUGGAAACUAGGAGCACCAUUUCGCUGCCAGUGAAGAAAUGAACAAAGGAAAUCUGGGCCAGGCAGGCAUCAAAAGAAAUAGUCUUGCGCUCAACCCGAAAGUCUGUAAUCAUUUUAAGGGUA [A66G A114C]: the self-cleavage amounted to 0.06.

Consider GUUAACGGUCAUAGGCCAUGGAAACUAGGAGCACCAUUUCGCUGCCAGUGAAGAAAUGAACAAAGGAAAUCUGGGCCAGGCAGGCAUCAAAAGAAAUAGUCUUGCGCUCAACCGGAAAGUCUGUAAUCAUUUUAAGGGUA [A66G A114G], for which the self-cleavage was 0.48.

Turning to GUUAACGGUCAUAGGCCAUGGAAACUAGGAGCACCAUUUCGCUGCCAGUGAAGAAAUGAACAAAGGAAAUCUGGGCCAGGCAGGCAUCAAAAGAAAUAGUCUUGCGCUCAACCAGAUAGUCUGUAAUCAUUUUAAGGGUA [A66G A117U], the self-cleavage came out at 0.6.

As for GUUAACGGUCAUAGGCCAUGGAAACUAGGAGCACCAUUUCGCUGCCAGUGAAGAAAUGAACAAAGGAAAUCUGGGCCAGGCAGGCAUCAAAAGAAAUAGUCUUGCGCUCAACCAGAGAGUCUGUAAUCAUUUUAAGGGUA [A66G A117G], the self-cleavage came to 1.88.

For the variant GUUAACGGUCAUAGGCCAUGGAAACUAGGAGCACCAUUUCGCUGCCAGUGAAGAAAUGAACAAAGGAAAUCUGGGCCAGGCAAGCAUCAAAAGAAAUAGUCUUGCGCUCAACCAGAAAGUCUGUAAUCAUUUUAAGGGUA [A66G G83A], the self-cleavage was determined as 1.56.

For the variant GUUAACGGUCAUAGGCCAUGGAAACUAGGAGCACCAUUUCGCUGCCAGUGAAGAAAUGAACAAAGGAAAUCUGGGCCAGGCAGGCAUCAAAAGAAAUAGUCUUGCGCUCAACCAGAAAGUCUGUAAUCGUUUUAAGGGUA [A66G A129G], the self-cleavage turned out to be 0.85.

Regarding GUUAACGGUCAUAGGCCAUGGAAACUAGGAGCACCAUUUCGCUGCCAGUGAAGAAAUGAACAAAGGAAAUCUGGGCCAGGCAGGCAUCAAAAGAAAUAGUCUUGCGCUCAACCAGAAGGUCUGUAAUCAUUUUAAGGGUA [A66G A118G], the self-cleavage stood at 2.17.

With GUUAACGGUCAUAGGCCAUGGAAACUAGGAGCACCAUUUCGCUGCCAGUGAAGAAAUGAACAAAGGAAAUCUGGGCCAGGCAGGCAUCAAAAGAAAUAGUCUUGCGCUCAACCAGAACGUCUGUAAUCAUUUUAAGGGUA [A66G A118C], the self-cleavage stood at 1.11.

Turning to GUUAACGGUCAUAGGCCAUGGAAACUAGGAGCACCAUUUCGCUGCCAGUGAAGAAAUGAACAAAGGAAAUCUGGGCCAGGCAGGCAUCAAAAGAAAUAGUCUUGCGCUCAACCAGAAAGUCUGUAAUCAUUUUAGGGGUA [A66G A135G], the self-cleavage was 0.47.

In the case of GUUAACGGUCAUAGGCCAUGGAAACUAGGAGCACCAUUUCGCUGCCAGUGAAGAAAUGAACAAAGGAAAUCUUGGCCAGGCAGGCAUCAAAAGAAAUAGUCUUGCGCUCAACCAGAAAGUCUGUAAUCAUUUUAAGGGUA [A66G G73U], the self-cleavage is 0.3.
